Measurements taken from patent US20160075790A1 (Bristol-Myers Squibb, published 2016).
Where “and” joins values, the source holds several entries; their conditions need not be identical. Identical values can stand only once. Values belong to the binder of their own block, whether it stands above or below them.

Columns and labels:
[1] = biological target: T1, human CD40L, membrane-bound on cells (human, UniProt P29965 1-261); assay: cell-based or functional assay
T1 sequence: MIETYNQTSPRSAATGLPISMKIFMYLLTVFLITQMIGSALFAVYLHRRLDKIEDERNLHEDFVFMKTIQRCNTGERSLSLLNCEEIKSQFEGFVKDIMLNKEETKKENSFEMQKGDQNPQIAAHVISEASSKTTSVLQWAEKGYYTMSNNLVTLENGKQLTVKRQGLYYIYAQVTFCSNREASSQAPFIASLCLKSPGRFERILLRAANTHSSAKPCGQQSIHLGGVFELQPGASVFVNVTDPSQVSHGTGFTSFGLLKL

[2] = biological target: T2, human isoleucine zipper-CD40L (IZ-hCD40L) (human, UniProt P29965 113-261); assay: cell-based or functional assay
T2 sequence: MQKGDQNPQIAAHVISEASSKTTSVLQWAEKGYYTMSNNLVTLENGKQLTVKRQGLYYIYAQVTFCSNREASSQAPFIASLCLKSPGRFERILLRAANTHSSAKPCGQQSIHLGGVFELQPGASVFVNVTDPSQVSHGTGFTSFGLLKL

B3: BMS2h-116-1314 (other)
VL: DIQMTQSPSSLSASVGDRVTITCRASQPIGPDLLWYRQKPGKAPKLLIYQTSILRSGVPSRFSGSGSETDFTLTISNLQPEDFATYYCQQYWAFPVTFGQGTKVVIKR
CHO-hCD40L-driven DC Activation IL-12 EC50 [1]: 664 nM | T-B cell MLR EC50 [1]: 1690 nM | hIZCD40L-driven Human B Cell Proliferation EC50 [2]: 41 nM

B6: BMS2h-116-1319 (other)
VL: DIQMTQSPSSLSASVGDRVTITCRASQPIGPDLLWYQQKPGKAPKLLIYQTSIMRSGVPSRFSGSGSETDFTLTISNLQPEDFATYYCQQYWTFPVTFGQGTKVEIKR
CHO-hCD40L-driven Human B Cell Proliferation EC50 [1]: > 7000 nM | hIZCD40L-driven Human B Cell Proliferation EC50 [2]: 180 nM

B7: BMS2h-116-1320 (other)
VL: DIQMTQSPSSLSAYVGDRVTITCRASQPIGPDLLWYQQKPGKAPKLLIYQTSILRSGVPSRFSGSGSETDFTLTISNLQPEDFAKYYCQQYWAFPVTFGQGTKVVIKR
CHO-hCD40L-driven DC Activation IL-12 EC50 [1]: 32 nM | CHO-hCD40L-driven Human B Cell Proliferation EC50 [1]: 138 nM | T-B cell MLR EC50 [1]: 191 nM | hIZCD40L-driven Human B Cell Proliferation EC50 [2]: 20 nM

B8: BMS2h-437-4 (other)
VL: DIQMTQSPSSLSASVGDRVTITCRASTPIGTMLDWYQQKPGKAPKLLIGHSSWLQSGVPSRFSGCGSGTDFTLTISSLQPEDFATYYCGQHVRPPATFGQGTKVEIKR
CHO-hCD40L-driven DC Activation IL-12 EC50 [1]: 1330 nM | CHO-hCD40L-driven Human B Cell Proliferation EC50 [1]: > 7000 nM | hIZCD40L-driven Human B Cell Proliferation EC50 [2]: 203 nM

B9: BMS2h-492-3 (other)
VL: DIQMTQSPSSLSATVGDRVTITCRASQAIETNLEWYQQKPGKAPKLLIYDASMLQSGVPSRFSGSGSGTDFTLTISSLQPEDFATYYCQQYDAYPPTFGQGTKVEIKR
CHO-hCD40L-driven Human B Cell Proliferation EC50 [1]: > 7000 nM | hIZCD40L-driven Human B Cell Proliferation EC50 [2]: 1100 nM

B10: BMS2h-492-4 (other)
VL: DIQMTQSPSSLSASVGDRVTITCRASQAIEHNLEWYQQKPGKAPKLLIYDASMLQSGVPSRFSGRGSGTDFTLTISSLQPEDFATYYCQQYDAYPPTFGQGTKVEIKR
CHO-hCD40L-driven Human B Cell Proliferation EC50 [1]: > 7000 nM | hIZCD40L-driven Human B Cell Proliferation EC50 [2]: 1700 nM

B11: BMS2h-494-4 (other)
VL: EIQMTQSPSSLSASVGDRVTMTCRASQSIDKDLEWYQQKPGKAPRLLIYSSSWLQRGVPSRFSGSGSGTDFTLTISSLRPEDFATYYCQQYFQYPPTLGQGTKVEIKR
CHO-hCD40L-driven Human B Cell Proliferation EC50 [1]: > 7000 nM | hIZCD40L-driven Human B Cell Proliferation EC50 [2]: 590 nM

B12: BMS2h-494-6 (other)
VL: DIQMTQSPPSLSASVGDRVTITCRASQSIDKDLEWYQQKPGKAPRLLIYSSSWLQRGVPSRFSGSGSGTDFTLTISSLQPEDFATYHCQQYFQYPPTFGQGTKVEIKR
CHO-hCD40L-driven Human B Cell Proliferation EC50 [1]: > 7000 nM | hIZCD40L-driven Human B Cell Proliferation EC50 [2]: 2000 nM

B13: BMS2h-503 (other)
VL: DIQMTQSPSSLSASVGDRVTITCRASHHIQRYLSWYQQKPGKAPKLLILWGSQLQSGVPSRFSGSGSGTDFTLTISSLQPEDFATYYCGQWWAPPPTFGQGTKVEIKR
CHO-hCD40L-driven Human B Cell Proliferation EC50 [1]: > 7000 nM | hIZCD40L-driven Human B Cell Proliferation EC50 [2]: 4200 nM

B14: BMS2h-503-1 (other)
VL: DIQMTQSPSSLSASVGDRVTITCRASHHIQRYLSWYQQKPGKAPKLLILWGSQLQSGVPSRFSGSGSGTDFTLTISSLQPEDFATYYCGQWWAPPQTFGQGTKVEIKR
CHO-hCD40L-driven DC Activation IL-12 EC50 [1]: 756 nM | CHO-hCD40L-driven Human B Cell Proliferation EC50 [1]: 2300 nM | hIZCD40L-driven Human B Cell Proliferation EC50 [2]: 24 nM

B15: BMS2h-503-2 (other)
VL: DIQMTQSPSSLSASVGDRVTITCRASHDIQRYLSWYQQKPGKAPKLLILWGSQLQSGVPSRFSGSGSGTDFTLTISSLQPEDFATYYCGQWWAPPQTFGQGTKVEIKR
CHO-hCD40L-driven DC Activation IL-12 EC50 [1]: 1560 nM | CHO-hCD40L-driven Human B Cell Proliferation EC50 [1]: 3000 nM | hIZCD40L-driven Human B Cell Proliferation EC50 [2]: 44 nM

The next lines start with the values.

CHO-hCD40L-driven DC Activation IL-12 EC50 [1]: 266 nM | hIZCD40L-driven Human B Cell Proliferation EC50 [2]: 358 nM
B1: BMS2h-719-12 (other)
VH: EVQLLESGGGLVQPGGSLRLSCAASGFTFKRYEMMWVRQAPGKGLEWVSSISSDGSFTYYADSVKGRFTVSRDNSKNTLYLQMNSLRAEDTAVYYCADPFTEFDYWGQGTLVTVSS

CHO-hCD40L-driven DC Activation IL-12 EC50 [1]: 219 nM | hIZCD40L-driven Human B Cell Proliferation EC50 [2]: 50 nM
B2: BMS2h-719-13 (other)
VH: EVQLLESGGGLVQPGGSLRLSCAASGFTFKRYEMMWVRQAPGKGLEWVSSISSDGSFTYYADSVKGRFTISRDNTKNTLYLQMNSLRAEDTAVYYCADPFTELDYWGHGTLVTVSS

CHO-hCD40L-driven DC Activation IL-12 EC50 [1]: 113 nM | CHO-hCD40L-driven Human B Cell Proliferation EC50 [1]: 236 nM and 268 nM | hIZCD40L-driven Human B Cell Proliferation EC50 [2]: 132 nM
B4: BMS2h-719-17 (other)
VH: EVQLLESGGGLVQPGGSLRLSCAASGFTFKRYEMSWVRQAPGKGLEWVSSISSDGSFTYYADSVKGRFTISRDNSKNTLYLQMNSLRAEDTAVYYCADPFTEIDYWGQGTQVTVSS

CHO-hCD40L-driven DC Activation IL-12 EC50 [1]: 184 nM | hIZCD40L-driven Human B Cell Proliferation EC50 [2]: 138 nM
B5: BMS2h-719-19 (other)
VH: EVQLLESGGGWVQPGGSLRLSCAASGFTFKRYEMMWVRQAPGKGLEWVSSISSDGSFTYYADSVKGRFTISRDNSKNTLYLQMNSLRAEDTAVYYCADPFTEFDYWGQGTLVTVSS

CHO-hCD40L-driven DC Activation IL-12 EC50 [1]: 387 nM | CHO-hCD40L-driven Human B Cell Proliferation EC50 [1]: > 700 nM | hIZCD40L-driven Human B Cell Proliferation EC50 [2]: 254 nM and 354 nM
B16: BMS2h-572-604 (other)
VH: EVQLLESGGGLVQPGGSLRLSCAASGFTFKWQLMGWVRQAPGKGLEWVSGIEGPGDVTYYADSVKGRFTISRDNSKNTLYLQMNSLRAEDTAVYYCVKVGKESNSDYRGQGTLVTVSS

CHO-hCD40L-driven DC Activation IL-12 EC50 [1]: 152 nM | T-B cell MLR EC50 [1]: > 7000 nM | hIZCD40L-driven Human B Cell Proliferation EC50 [2]: 96 nM
B17: BMS2h-572-608 (other)
VH: EVQLLESGGGLVQPGGSLRLSCAASGFTFNWELMGWARQAPGKGLEWVSGIEGPGDVTYYADSVKGRFTISRDNSKNTLYLQMNSLRAEDTAVYYCVKVGKESNSDYRGQGTLVTVSS

CHO-hCD40L-driven DC Activation IL-12 EC50 [1]: 207 nM | T-B cell MLR EC50 [1]: > 7000 nM | hIZCD40L-driven Human B Cell Proliferation EC50 [2]: 109 nM
B18: BMS2h-572-610 (other)
VH: EVQLLESGGGLVQPGGSLRLSCAASGFTFNWQLMGWVRQAPGKGLEWVSGIEGPGDVTYYADSVKGRFTISRDNSKNTLYLQMNSLRAEDTAVYYCVKVGKDSKSDYRGQGTLVTVSS

CHO-hCD40L-driven DC Activation IL-12 EC50 [1]: 135 nM | T-B cell MLR EC50 [1]: > 7000 nM | hIZCD40L-driven Human B Cell Proliferation EC50 [2]: 93 nM
B19: BMS2h-572-614 (other)
VH: EVQLLESGGGLVQPGGSLRLSCAASGFTFNWQLMGWVRQAPGKGLEWVSGIEGPGDVTYYADSVKGRFTISRDNSKNTLYLQMNSLRAEDTAVYYCVKVGKDAKSDYRGQGTLVTVSS

CHO-hCD40L-driven DC Activation IL-12 EC50 [1]: 608 nM | T-B cell MLR EC50 [1]: > 7000 nM | hIZCD40L-driven Human B Cell Proliferation EC50 [2]: 204 nM and 340 nM
B20: BMS2h-572-616 (other)
VH: EVQLLESGGGLVQPGGSLRLSCAASGFTFNWQLMGWVRQAPGKGLEWVSGIEGPGDVTYYADSVKGRFTISRDNSKNTLYLQMNSLRAEDTAVYYCVKVGKESKSDYRGQGTLVTVSS

CHO-hCD40L-driven DC Activation IL-12 EC50 [1]: 338 nM | T-B cell MLR EC50 [1]: > 7000 nM | hIZCD40L-driven Human B Cell Proliferation EC50 [2]: 157 nM and 189 nM
B21: BMS2h-572-617 (other)
VH: EVQLLESGGGLVQPGGSLRLSCAASGFTFNWQLMGWVRQAPGKGLEWVSGIEGPGDVTYYADSVKGRFTISRDNSKNTLYLQMNSLRAEDTAVYYCVKVGRDSKSDYRGQGTLVTVSS

CHO-hCD40L-driven DC Activation IL-12 EC50 [1]: 188 nM | T-B cell MLR EC50 [1]: > 7000 nM | hIZCD40L-driven Human B Cell Proliferation EC50 [2]: 90 nM
B22: BMS2h-572-619 (other)
VH: EVQLLESGGGLVQPGGSLRLSCAASGFTFNWQLMGWVRQAPGKGLEWVSGIEGPGDVTYYADSVKGRFTISRDNSKNTLYLQMNSLRAEDTAVYYCVKVGKDSRSDYRGQGTLVTVSS

CHO-hCD40L-driven DC Activation IL-12 EC50 [1]: 281 nM | T-B cell MLR EC50 [1]: > 7000 nM | hIZCD40L-driven Human B Cell Proliferation EC50 [2]: 301 nM and 293 nM
B23: BMS2h-572-622 (other)
VH: EVQLLESGGGLVQPGGSLRLSCAASGFTFNWQLMGWVRQAPGKGLEWVSGIEGPGDVTYYADSVKGRFTISRDNSKNTLYLQMNSLRAEDTAVYYCVKVGKDSTSDYRGQGTLVTVSS

CHO-hCD40L-driven DC Activation IL-12 EC50 [1]: 280 nM | T-B cell MLR EC50 [1]: > 7000 nM | hIZCD40L-driven Human B Cell Proliferation EC50 [2]: 181 nM and 261 nM
B24: BMS2h-572-623 (other)
VH: EVQLLESGGGLVQPGGSLRLSCAASGFTFNWQLMGWVRQAPGKGLEWVSGIEGPGDVTYYADSVKGRFTISRDNSKNTLYLQMNSLRAEDTAVYYCVKVGKESSSDYRGQGTLVTVSS

CHO-hCD40L-driven DC Activation IL-12 EC50 [1]: 246 nM | hIZCD40L-driven Human B Cell Proliferation EC50 [2]: 103 nM
B25: BMS2h-572-630 (other)
VH: EVQLLESGGGLVQPGGSLRLSCAASGFTFKWQLMGWVRQAPGKGLEWVSGIEGPGDVTYYADSVKGRFTISRDNSKNTLYLQMNSLRAEDTAVYYCVKVGKDAKSDYRGQGTLVTVSS

CHO-hCD40L-driven DC Activation IL-12 EC50 [1]: 230 nM | hIZCD40L-driven Human B Cell Proliferation EC50 [2]: 108 nM
B26: BMS2h-572-631 (other)
VH: EVQLLESGGGLVQPGGSLRLSCAASGFTFKWQLMGWVRQAPGKGLEWVSGIEGPGDVTYYADSVKGRFTISRDNSKNTLYLQMNSLRAEDTAVYYCVKVGKDSRSDYRGQGTLVTVSS
